Experimental data published in article PMC10397247.
Like-named read-outs stand apart in the source and are kept apart here. Values belong to the binder of their own block, whether it stands above or below them.

Assays:
4H717-bN = target: T1, 4H717-bN; experiment: two-hybrid library CCNG1;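 note: natural log of median RNA to DNA barcode read ratio; higher means stronger binding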
T1 chain: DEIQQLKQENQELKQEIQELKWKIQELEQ

4H72-bN = target: T2, 4H72-bN; experiment: two-hybrid library CCNG1;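 note: natural log of median RNA to DNA barcode read ratio; higher means stronger binding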
T2 chain: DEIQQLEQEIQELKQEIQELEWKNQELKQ

4H754-bN = target: T3, 4H754-bN; experiment: two-hybrid library CCNG1;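 note: natural log of median RNA to DNA barcode read ratio; higher means stronger binding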
T3 chain: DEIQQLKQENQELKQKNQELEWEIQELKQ

4H797-bN = target: T4, 4H797-bN; experiment: two-hybrid library CCNG1;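 note: natural log of median RNA to DNA barcode read ratio; higher means stronger binding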
T4 chain: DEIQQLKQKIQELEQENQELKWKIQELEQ

4H883-bN = target: T5, 4H883-bN; experiment: two-hybrid library CCNG1;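 note: natural log of median RNA to DNA barcode read ratio; higher means stronger binding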
T5 chain: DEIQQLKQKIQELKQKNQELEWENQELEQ

4H908-bN = target: T6, 4H908-bN; experiment: two-hybrid library CCNG1;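 note: natural log of median RNA to DNA barcode read ratio; higher means stronger binding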
T6 chain: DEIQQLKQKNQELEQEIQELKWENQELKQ

4H918-bN = target: T7, 4H918-bN; experiment: two-hybrid library CCNG1
T7 chain: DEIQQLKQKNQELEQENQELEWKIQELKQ

4H953-bN = target: T8, 4H953-bN; experiment: two-hybrid library CCNG1
T8 chain: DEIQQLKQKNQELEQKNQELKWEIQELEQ

4H967-bN = target: T9, 4H967-bN; experiment: two-hybrid library CCNG1
T9 chain: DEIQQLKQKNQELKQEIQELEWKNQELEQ

4H687-bN = target: T10, 4H687-bN; experiment: two-hybrid library CCNG1
T10 chain: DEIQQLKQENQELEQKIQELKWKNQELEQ

4H3595-AA = target: T11, 4H3595-AA; experiment: two-hybrid library CCmax
T11 chain: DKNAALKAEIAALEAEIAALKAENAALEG

4H3629-AA = target: T12, 4H3629-AA; experiment: two-hybrid library CCmax; details: mean of both orientations
T12 chain: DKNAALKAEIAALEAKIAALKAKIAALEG

4H3782-AA = target: T13, 4H3782-AA; experiment: two-hybrid library CCmax; details: mean of both orientations
T13 chain: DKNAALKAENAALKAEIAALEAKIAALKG

4H380-AA = target: T14, 4H380-AA; experiment: two-hybrid library CCmax; details: mean of both orientations
T14 chain: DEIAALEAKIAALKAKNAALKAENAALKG

4H3939-AA = target: T15, 4H3939-AA; experiment: two-hybrid library CCmax; details: mean of both orientations
T15 chain: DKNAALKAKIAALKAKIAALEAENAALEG

4H3969-AA = target: T16, 4H3969-AA; experiment: two-hybrid library CCmax; details: mean of both orientations
T16 chain: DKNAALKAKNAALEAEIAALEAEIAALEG

4H446-AA = target: T17, 4H446-AA; experiment: two-hybrid library CCmax; details: mean of both orientations
T17 chain: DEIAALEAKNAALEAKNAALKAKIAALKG

4H464-AA = target: T18, 4H464-AA; experiment: two-hybrid library CCmax; details: mean of both orientations
T18 chain: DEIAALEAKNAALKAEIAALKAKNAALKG

4H483-AA = target: T19, 4H483-AA; experiment: two-hybrid library CCmax; details: mean of both orientations
T19 chain: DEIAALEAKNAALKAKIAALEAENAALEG

4H63-AA = target: T20, 4H63-AA; experiment: two-hybrid library CCmax; details: mean of both orientations
T20 chain: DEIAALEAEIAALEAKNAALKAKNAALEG

4H32-AA = target: T21, 4H32-AA; experiment: two-hybrid library CCmax
T21 chain: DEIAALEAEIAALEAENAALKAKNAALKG

4H3378-AA = target: T22, 4H3378-AA; experiment: two-hybrid library CCmax
T22 chain: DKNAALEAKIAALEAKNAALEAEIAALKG

4H340-AA = target: T23, 4H340-AA; experiment: two-hybrid library CCmax; details: mean of both orientations
T23 chain: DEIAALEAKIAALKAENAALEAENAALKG

4H3413-AA = target: T24, 4H3413-AA; experiment: two-hybrid library CCmax; details: mean of both orientations
T24 chain: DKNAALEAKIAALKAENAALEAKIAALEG

4H3588-AA = target: T25, 4H3588-AA; experiment: two-hybrid library CCmax; details: mean of both orientations
T25 chain: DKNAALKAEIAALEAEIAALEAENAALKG

4H3606-AA = target: T26, 4H3606-AA; experiment: two-hybrid library CCmax; details: mean of both orientations
T26 chain: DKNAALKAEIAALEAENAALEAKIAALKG

4H3631-AA = target: T27, 4H3631-AA; experiment: two-hybrid library CCmax; details: mean of both orientations
T27 chain: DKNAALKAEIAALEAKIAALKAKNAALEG

4H3697-AA = target: T28, 4H3697-AA; experiment: two-hybrid library CCmax; details: mean of both orientations
T28 chain: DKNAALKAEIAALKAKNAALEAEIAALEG

4H3718-AA = target: T29, 4H3718-AA; experiment: two-hybrid library CCmax; details: mean of both orientations
T29 chain: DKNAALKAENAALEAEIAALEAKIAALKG

4H384-AA = target: T30, 4H384-AA; experiment: two-hybrid library CCmax; details: mean of both orientations
T30 chain: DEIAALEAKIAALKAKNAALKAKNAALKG

4H3865-AA = target: T31, 4H3865-AA; experiment: two-hybrid library CCmax; details: mean of both orientations
T31 chain: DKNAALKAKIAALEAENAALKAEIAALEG

4H697-AA = target: T32, 4H697-AA; experiment: two-hybrid library CCmax; details: mean of both orientations
T32 chain: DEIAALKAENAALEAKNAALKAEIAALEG

4H982-AA = target: T33, 4H982-AA; experiment: two-hybrid library CCmax; details: mean of both orientations
T33 chain: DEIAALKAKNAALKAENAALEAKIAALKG

4H568-bN = target: T34, 4H568-bN; experiment: two-hybrid library CCNG1
T34 chain: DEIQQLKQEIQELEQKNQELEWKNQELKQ

4H607-bN = target: T35, 4H607-bN; experiment: two-hybrid library CCNG1
T35 chain: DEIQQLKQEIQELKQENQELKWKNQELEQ

APC7099-AA = target: T36, APC7099-AA; experiment: two-hybrid library CCmax
T36 chain: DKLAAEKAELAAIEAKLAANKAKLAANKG

APC8191-AA = target: T37, APC8191-AA; experiment: two-hybrid library CCmax; details: mean of both orientations
T37 chain: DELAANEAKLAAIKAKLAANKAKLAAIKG

APC8910-AA = target: T38, APC8910-AA; experiment: two-hybrid library CCmax; details: mean of both orientations
T38 chain: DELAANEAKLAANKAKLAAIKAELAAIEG

APC9096-AA = target: T39, APC9096-AA; experiment: two-hybrid library CCmax; details: mean of both orientations
T39 chain: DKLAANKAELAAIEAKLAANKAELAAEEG

APC9319-AA = target: T40, APC9319-AA; experiment: two-hybrid library CCmax; details: mean of both orientations
T40 chain: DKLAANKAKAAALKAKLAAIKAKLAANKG

4H481-AA = target: T41, 4H481-AA; experiment: two-hybrid library CCmax
T41 chain: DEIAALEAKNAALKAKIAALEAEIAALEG

4H55-AA = target: T42, 4H55-AA; experiment: two-hybrid library CCmax
T42 chain: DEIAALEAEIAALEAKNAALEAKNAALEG

4H662-AA = target: T43, 4H662-AA; experiment: two-hybrid library CCmax; details: mean of both orientations
T43 chain: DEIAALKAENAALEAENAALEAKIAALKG

interaction score (4H717-bN): 1.4 | interaction score (4H72-bN): -1.73 | interaction score (4H754-bN): -0.997 | interaction score (4H797-bN): -1.95 | interaction score (4H883-bN): -0.0445 | interaction score (4H908-bN): -0.377 | interaction score (4H918-bN): -1.09 | interaction score (4H953-bN): -1.57 | interaction score (4H967-bN): -0.445
B1: 4H717-bN (peptide)
chain: DEIQQLKQENQELKQEIQELKWKIQELEQ

interaction score (4H687-bN): -0.549 | interaction score (4H717-bN): 0.114 | interaction score (4H72-bN): -1.56 | interaction score (4H754-bN): 0.422 | interaction score (4H797-bN): 0.169 | interaction score (4H883-bN): 0.227 | interaction score (4H908-bN): -0.555 | interaction score (4H918-bN): -0.686 | interaction score (4H953-bN): -1.1 | interaction score (4H967-bN): 0.425
B2: 4H687-bN (peptide)
chain: DEIQQLKQENQELEQKIQELKWKNQELEQ

interaction score (4H3595-AA): -0.866 | interaction score (4H3629-AA): 0.754 | interaction score (4H3782-AA): -1.1 | interaction score (4H380-AA): 0.0185 | interaction score (4H3939-AA): -0.576 | interaction score (4H3969-AA): -1.4 | interaction score (4H446-AA): -1.59 | interaction score (4H464-AA): 1.2 | interaction score (4H483-AA): -1.8 | interaction score (4H63-AA): -0.914
B3: 4H3595-AA (peptide)
chain: DKNAALKAEIAALEAEIAALKAENAALEG

interaction score (4H32-AA): 0.0438 | interaction score (4H3378-AA; mean of both orientations): -1.84 | interaction score (4H340-AA): 1.89 | interaction score (4H3413-AA): 0.814 | interaction score (4H3588-AA): -0.686 | interaction score (4H3606-AA): -0.292 | interaction score (4H3631-AA): -0.675 | interaction score (4H3697-AA): -0.509 | interaction score (4H3718-AA): -0.924 | interaction score (4H384-AA): 1.2 | interaction score (4H3865-AA): 1.4 | interaction score (4H697-AA): -1.89 | interaction score (4H982-AA): -0.329
B4: 4H32-AA (peptide)
chain: DEIAALEAEIAALEAENAALKAKNAALKG

interaction score (4H568-bN): 0.761 | interaction score (4H607-bN): -0.164 | interaction score (4H687-bN): 0.312 | interaction score (4H717-bN): -0.157 | interaction score (4H72-bN): -0.806 | interaction score (4H754-bN): 0.0731 | interaction score (4H797-bN): 0 | interaction score (4H883-bN): 1.1 | interaction score (4H908-bN): 1.08 | interaction score (4H918-bN): -0.124 | interaction score (4H953-bN): -1.93 | interaction score (4H967-bN): -0.452
B5: 4H568-bN (peptide)
chain: DEIQQLKQEIQELEQKNQELEWKNQELKQ

interaction score (4H3378-AA): 1.2 | interaction score (4H340-AA): -1.86 | interaction score (4H3413-AA): -1.24 | interaction score (4H3588-AA): -1.31 | interaction score (4H3606-AA): -0.302 | interaction score (4H3631-AA): -1.65 | interaction score (4H3697-AA): -1.32 | interaction score (4H3718-AA): -1.79 | interaction score (4H384-AA): -1.9 | interaction score (4H3865-AA): -0.877 | interaction score (4H697-AA): -2.13 | interaction score (4H982-AA): -1.5
B6: 4H3378-AA (peptide)
chain: DKNAALEAKIAALEAKNAALEAEIAALKG

interaction score (APC7099-AA): -1.86 | interaction score (APC8191-AA): -1.62 | interaction score (APC8910-AA): -2.07 | interaction score (APC9096-AA): -1.55 | interaction score (APC9319-AA): -2.06
B7: APC7099-AA (peptide)
chain: DKLAAEKAELAAIEAKLAANKAKLAANKG

interaction score (4H481-AA): 0.282 | interaction score (4H55-AA): -1.31 | interaction score (4H662-AA): 1.83
B8: 4H481-AA (peptide)
chain: DEIAALEAKNAALKAKIAALEAEIAALEG
